The labels stand for the following.
B1: peptide-displaying phage 547-H03 (peptide)
peptide: AGETFCSGWPTFECMQWGT
notes: on M13 phage
B2: peptide-displaying phage 550-F11 (peptide)
peptide: AGQFYCSGPPTFQCIMIGT
B3: peptide-displaying phage 274-B07 (peptide)
peptide: AGETVCYWLNGWFCVDDGT
notes: on M13 phage
B4: peptide-displaying phage 453-A05 (peptide)
peptide: GSGDPCSPGPSINGHCSVMAP
notes: on M13 phage
B5: peptide-displaying phage 115-G02 (peptide)
peptide: AQDPGFSKHSMGHGYPSKMNWG
notes: on M13 phage
B6: peptide-displaying phage 546-E02 (peptide)
peptide: GSHHTCLDGFAGWRCTEVAP
notes: on M13 phage
B7: peptide-displaying phage 470-C02 (peptide)
peptide: AGFWDCGWMMQDCHMHGT
notes: on M13 phage
B8: peptide-displaying phage 443-D04 (peptide)
peptide: GSMLGCLFEHQNKYDCYVLAP
notes: on M13 phage
B9: peptide-displaying phage 336-D07 (peptide)
peptide: AGYSVCKGYPSFECAFFGT
notes: on M13 phage
B10: peptide-displaying phage 549-G05 (peptide)
peptide: GDLLVCKFDDKFWTETCEWADP
notes: on M13 phage
B11: peptide-displaying phage 545-A09 (peptide)
peptide: AGLPKCSGPPWFSCYYGGT
notes: on M13 phage
B12: peptide-displaying phage 92-B05 (peptide)
peptide: AQFDRYWHFAWMDVSFSSGQSG
notes: on M13 phage

T2 sequence (P08581 25-1390): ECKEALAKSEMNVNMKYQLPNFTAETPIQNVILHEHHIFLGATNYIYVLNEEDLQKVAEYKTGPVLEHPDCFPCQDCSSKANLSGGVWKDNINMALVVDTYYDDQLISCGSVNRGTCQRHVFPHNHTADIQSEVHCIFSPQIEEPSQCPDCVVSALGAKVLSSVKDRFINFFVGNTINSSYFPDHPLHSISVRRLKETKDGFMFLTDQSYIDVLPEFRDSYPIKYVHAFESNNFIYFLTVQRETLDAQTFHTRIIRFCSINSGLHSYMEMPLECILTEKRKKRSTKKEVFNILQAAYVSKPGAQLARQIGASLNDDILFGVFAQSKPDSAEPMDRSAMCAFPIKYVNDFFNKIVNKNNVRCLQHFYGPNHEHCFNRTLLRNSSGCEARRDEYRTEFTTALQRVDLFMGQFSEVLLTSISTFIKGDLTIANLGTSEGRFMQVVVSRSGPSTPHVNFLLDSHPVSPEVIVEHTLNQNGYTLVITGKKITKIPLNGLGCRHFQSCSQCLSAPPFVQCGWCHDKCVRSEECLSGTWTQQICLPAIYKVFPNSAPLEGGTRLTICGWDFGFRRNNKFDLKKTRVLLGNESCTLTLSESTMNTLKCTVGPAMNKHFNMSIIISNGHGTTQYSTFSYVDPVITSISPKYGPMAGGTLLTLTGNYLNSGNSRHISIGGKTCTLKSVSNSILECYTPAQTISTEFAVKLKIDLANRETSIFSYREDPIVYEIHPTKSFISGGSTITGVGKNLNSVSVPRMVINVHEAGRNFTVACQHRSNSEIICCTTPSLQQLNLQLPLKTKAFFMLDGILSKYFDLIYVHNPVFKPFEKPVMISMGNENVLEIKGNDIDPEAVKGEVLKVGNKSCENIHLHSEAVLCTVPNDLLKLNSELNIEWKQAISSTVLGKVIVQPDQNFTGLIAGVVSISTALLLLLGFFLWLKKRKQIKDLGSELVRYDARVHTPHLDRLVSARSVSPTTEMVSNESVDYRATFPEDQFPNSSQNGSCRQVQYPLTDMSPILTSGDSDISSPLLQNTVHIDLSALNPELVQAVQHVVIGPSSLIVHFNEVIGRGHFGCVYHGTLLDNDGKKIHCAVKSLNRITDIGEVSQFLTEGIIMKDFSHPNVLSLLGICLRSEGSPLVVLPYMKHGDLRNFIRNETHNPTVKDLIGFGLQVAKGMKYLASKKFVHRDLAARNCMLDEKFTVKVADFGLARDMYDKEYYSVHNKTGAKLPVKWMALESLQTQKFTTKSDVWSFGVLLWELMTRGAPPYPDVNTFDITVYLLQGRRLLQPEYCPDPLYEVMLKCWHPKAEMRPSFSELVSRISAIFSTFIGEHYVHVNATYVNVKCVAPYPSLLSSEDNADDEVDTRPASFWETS
T1 sequence (P08581 25-932): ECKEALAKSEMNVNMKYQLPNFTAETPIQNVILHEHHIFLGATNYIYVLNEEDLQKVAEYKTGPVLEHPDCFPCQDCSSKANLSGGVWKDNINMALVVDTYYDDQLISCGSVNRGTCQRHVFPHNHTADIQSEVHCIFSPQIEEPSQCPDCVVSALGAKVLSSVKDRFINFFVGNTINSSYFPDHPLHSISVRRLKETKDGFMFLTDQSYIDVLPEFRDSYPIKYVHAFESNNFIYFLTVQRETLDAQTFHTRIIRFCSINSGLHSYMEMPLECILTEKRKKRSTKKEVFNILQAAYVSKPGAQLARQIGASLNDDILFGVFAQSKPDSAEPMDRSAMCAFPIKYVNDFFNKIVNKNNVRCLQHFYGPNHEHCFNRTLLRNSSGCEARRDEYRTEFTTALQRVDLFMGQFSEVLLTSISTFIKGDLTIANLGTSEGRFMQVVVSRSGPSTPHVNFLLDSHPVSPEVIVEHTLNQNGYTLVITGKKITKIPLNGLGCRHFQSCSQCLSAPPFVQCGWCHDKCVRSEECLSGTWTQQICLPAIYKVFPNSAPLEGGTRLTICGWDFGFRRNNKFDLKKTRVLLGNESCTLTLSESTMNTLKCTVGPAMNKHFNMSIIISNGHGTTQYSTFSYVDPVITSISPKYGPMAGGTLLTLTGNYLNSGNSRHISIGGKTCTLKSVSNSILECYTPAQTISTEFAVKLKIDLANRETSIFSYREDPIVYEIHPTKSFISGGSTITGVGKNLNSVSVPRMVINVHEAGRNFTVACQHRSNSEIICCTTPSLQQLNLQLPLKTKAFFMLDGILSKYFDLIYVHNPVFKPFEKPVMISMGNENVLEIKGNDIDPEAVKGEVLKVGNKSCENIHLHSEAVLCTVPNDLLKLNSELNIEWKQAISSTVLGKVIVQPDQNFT

The first assay concerns the target T1, cMet-Fc fusion protein (human, UniProt P08581 25-932).
T1 construct: extracellular domain; also called soluble cMet-Fc fusion protein; cMet-Fc (R&D Systems); not shown: Fc part, not described
As to the kind of experiment: phage ELISA on cMet-Fc, competitor HGF 500 ng/mL. As to the method:
(§1) These assays were conducted using the peptide-displaying phage discovered from the initial selection and screening campaigns using the first generation peptide libraries. Briefly, 96-well plates were coated overnight at 4 C with 0.5 μg/mL of cMet-Fc fusion protein or TRAIL-Fc fusion protein (background). The plates were blocked for 2 hours at 37 C with 3% BSA in PBST. […] This was followed by an addition of 30 μL of peptide-displaying phage overnight culture to each well. The plates were incubated for 2 hours at room temperature, washed with PBST and cMet-binding peptide-displaying phage was detected using an HRP-conjugated anti-M13 antibody.
(In general: An ELISA detects its analyte on a solid surface through an enzyme-linked reagent.)
As for B1, the “% of binding in the absence of HGF” value was 43%. Same read-out and setting: in the case of B2 it was 23%.

Another assay concerns the target T1, cMet-Fc fusion protein. Put plainly: phage ELISA on cMet-Fc, competitor HGF 100 ng/mL. As to the method: as §1
Regarding B3, the “% of binding in the absence of HGF” value amounted to 343%.

Turning to B4, the “% of binding in the absence of HGF” value amounted to 514%. With B5, the “% of binding in the absence of HGF” value amounted to 57%. In turn, B2 showed a % of binding in the absence of HGF of 58%.

The next assay has as its target T1, cMet-Fc fusion protein. As to the kind of experiment: phage protein ELISA, cMet-Fc vs TRAIL-Fc. Here is the method: Protein phage ELISAs using peptide-displaying phage isolates from the various selection campaigns were performed to determine specificity of the peptides for cMet versus an unrelated Fc-fusion protein (TRAIL-Fc). Briefly, 384-well plates were coated overnight at 4 C with 0.5 μg/mL of cMet-Fc fusion protein or TRAIL-Fc fusion protein (background). The plates were blocked for 2 hours 37 C with 3% (w/v) BSA in PBS containing 0.05% (v/v) Tween-20 (PBST). The plates were washed with PBST and 100 μL of peptide-displaying phage were added to each well. The plates were incubated for 2 hours at room temperature and washed with PBST. cMet-binding peptide-displaying phage were detected using an HRP-conjugated anti-M13 antibody.
B6: the fold over background was determined as 40.4 fold. Still for that read-out and setting: in the case of B2 it was 1.4 fold.

The molecule B7 gave a fold over background of 36.9 fold. Still for that read-out and setting: in the case of B8 it was 3 fold.

Another assay addresses T2, human cMet on 3T3 cells (human, UniProt P08581 25-1390).
T2 construct: whole, on cells; also called cell surface-expressed human cMet
As to the kind of experiment: phage whole cell ELISA, 3T3 human cMet vs 3T3. Here is the method:
Whole cell ELISAs were performed using 3T3 cells that over-express human cMet. […] Briefly, 96-well plates were seeded with 10⁵ cells per well. The plates were centrifuged for 5 minutes at 1600 rpm to pellet the cells. The resulting cell layer was fixed with 0.1% (v/v) glutaraldehyde for 12 minutes at 37 C. […] Peptide-displaying phage also were blocked in the above solution for 1 hour at 37 C. 100 μL of blocked phage was then added to each well and the plates were incubated for 1 hour at room temperature. The plates were washed with PBST. cMet-binding peptide-displaying phage were detected using an HRP-conjugated anti-M13 antibody.
As to B2, the fold over background worked out at 1.23 fold. For the molecule B9, the fold over background is 14.3 fold. The same measure, in the same setting: in the case of B10 it was 14.5 fold; in that of B11, 1.36 fold.

As to B12, the fold over background came out at 1.23 fold.

The values are drawn from patent US20110311446A1 (DYAX, published 2011).
